Data: FireProtDB (doi:10.1021/bi00123a002)
Values joined by “and” are separate entries in the source; they are usually repeats but may differ in a detail not shown here. Equal values may be shown once.

B1: Tryptophan synthase alpha chain, P00929 (parent)
chain: MERYENLFAQLNDRREGAFVPFVTLGDPGIEQSLKIIDTLIDAGADALELGVPFSDPLADGPTIQNANLRAFAAGVTPAQCFEMLALIREKHPTIPIGLLMYANLVFNNGIDAFYARCEQVGVDSVLVADVPVEESAPFRQAALRHNIAPIFICPPNADDDLLRQVASYGRGYTYLLSRSGVTGAENRGALPLHHLIEKLKEYHAAPALQGFGISSPEQVSAAVRAGAAGAISGSAIVKIIEKNLASPKQMLAELRSFVSAMKAASRA

Variants of: B1
Conditions: Salmonella typhimurium (strain LT2 / SGSC1412 / ATCC 700720), pH 7.8, 25 °C, Urea, CD, Potassium phosphate 10 mM, reversible: yes, structure 2WSY, whole UniProt chain shown

| Variant | ddG of mutation (higher = less stable) | unfolding free energy | denaturant m value (transition: 3) | denaturant midpoint (higher = more stable) (transition: 3) | unfolding free energy (transition: 3) | ddG of mutation (higher = less stable) (transition: 3) |
| --- | --- | --- | --- | --- | --- | --- |
| F22I | 4.58 kcal/mol | 8.58 kcal/mol | 1.57 kcal/mol/M and 1.51 kcal/mol/M | 2 M and 3.6 M | 3.16 kcal/mol and 5.43 kcal/mol | – |
| F22L | 1.05 kcal/mol | 12.1 kcal/mol | 2.96 kcal/mol/M and 1.7 kcal/mol/M | 2.1 M and 3.3 M | 6.38 kcal/mol and 5.73 kcal/mol | – |
| F22V | 3.44 kcal/mol | 9.72 kcal/mol | 1.74 kcal/mol/M | 3.3 M | 5.87 kcal/mol | -0.06 kcal/mol |
